Assay results reported in patent US20090304718A1 (Boehringer Ingelheim, published 2009).

T1: human FAP (fibroblast activation protein alpha) expressed on HT1080 clone v1.33 cells (human, UniProt Q12884 1-760)
T1 sequence (looked up): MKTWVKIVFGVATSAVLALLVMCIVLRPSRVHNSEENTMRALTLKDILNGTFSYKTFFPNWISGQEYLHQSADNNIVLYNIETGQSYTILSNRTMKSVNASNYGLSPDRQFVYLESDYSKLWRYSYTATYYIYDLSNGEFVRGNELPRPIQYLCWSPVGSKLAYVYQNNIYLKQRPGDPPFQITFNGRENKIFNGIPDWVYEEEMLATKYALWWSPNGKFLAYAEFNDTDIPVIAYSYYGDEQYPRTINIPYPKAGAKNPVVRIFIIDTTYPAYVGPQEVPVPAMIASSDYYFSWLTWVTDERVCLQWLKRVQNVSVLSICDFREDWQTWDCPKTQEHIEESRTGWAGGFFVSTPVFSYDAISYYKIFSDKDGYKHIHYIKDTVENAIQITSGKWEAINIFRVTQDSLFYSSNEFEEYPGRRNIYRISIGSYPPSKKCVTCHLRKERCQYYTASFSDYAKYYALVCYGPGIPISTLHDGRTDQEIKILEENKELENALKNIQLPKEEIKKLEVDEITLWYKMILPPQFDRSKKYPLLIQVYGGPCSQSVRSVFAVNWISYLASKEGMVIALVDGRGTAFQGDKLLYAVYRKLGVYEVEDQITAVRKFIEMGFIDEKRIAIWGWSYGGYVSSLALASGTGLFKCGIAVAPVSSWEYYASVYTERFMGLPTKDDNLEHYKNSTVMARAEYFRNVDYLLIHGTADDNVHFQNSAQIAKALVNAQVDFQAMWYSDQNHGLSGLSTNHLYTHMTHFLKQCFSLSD

T2: murine FAP expressed on HT1080 clone 13.6 cells (mouse, UniProt P97321 1-761)
T2 construct: whole, on cells; also called mouse FAP
T2 sequence (looked up): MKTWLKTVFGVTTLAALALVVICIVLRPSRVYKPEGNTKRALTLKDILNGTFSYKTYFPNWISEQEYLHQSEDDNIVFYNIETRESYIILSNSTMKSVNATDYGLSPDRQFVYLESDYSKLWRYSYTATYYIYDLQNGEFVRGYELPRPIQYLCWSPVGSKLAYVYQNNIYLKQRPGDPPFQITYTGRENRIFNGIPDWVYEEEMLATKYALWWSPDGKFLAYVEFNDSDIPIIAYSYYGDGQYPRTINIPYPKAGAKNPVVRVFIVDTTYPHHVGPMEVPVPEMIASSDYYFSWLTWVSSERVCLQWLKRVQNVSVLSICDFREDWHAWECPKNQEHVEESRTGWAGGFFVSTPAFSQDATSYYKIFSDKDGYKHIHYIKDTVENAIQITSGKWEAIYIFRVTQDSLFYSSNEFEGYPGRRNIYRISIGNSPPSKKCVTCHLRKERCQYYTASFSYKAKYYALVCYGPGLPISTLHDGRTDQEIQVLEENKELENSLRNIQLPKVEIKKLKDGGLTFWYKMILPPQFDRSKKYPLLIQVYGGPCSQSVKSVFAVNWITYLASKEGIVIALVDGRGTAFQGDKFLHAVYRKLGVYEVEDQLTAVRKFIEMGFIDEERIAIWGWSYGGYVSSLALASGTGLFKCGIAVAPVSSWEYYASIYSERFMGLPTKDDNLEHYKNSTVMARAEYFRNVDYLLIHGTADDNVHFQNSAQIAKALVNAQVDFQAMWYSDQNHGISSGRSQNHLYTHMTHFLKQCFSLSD

B1: BIBH1-DM1 (protein, INN chains, looked up)
VH: QVQLVQSGAEVKKPGASVKVSCKTSRYTFTEYTIHWVRQAPGQRLEWIGGINPNNGIPNYNQKFKGRVTITVDTSASTAYMELSSLRSEDTAVYYCARRRIAYGYDEGHAMDYWGQGTLVTVSS
VL: DIVMTQSPDSLAVSLGERATINCKSSQSLLYSRNQKNYLAWYQQKPGQPPKLLIFWASTRESGVPDRFSGSGFGTDFTLTISSLQAEDVAVYYCQQYFSYPLTFGQGTKVEIK
modifications: DM1 maytansinoid conjugate
B2: MFP5-DM1 (MFP5-SPP-DM1, disulfide-linked immunoconjugate) (other)
VH: QVQLQQSGAELARPGASVNLSCKASGYTFTNNGINWLKQRTGQGLEWIGEIYPRSTNTLYNEKFKGKATLTADRSSNTAYMELRSLTSEDSAVYFCARTLTAPFAFWGQGTLVTVSA
VL: QIVLTQSPAIMSASPGEKVTMTCSASSGVNFMHWYQQKSGTSPKRWIFDTSKLASGVPARFSGSGSGTSYSLTISSMEAEDAATYYCQQWSFNPPTFGGGTKLEIKR
B3: murine monoclonal antibody MFP5 (antibody, mouse IgG2a, V domains shown)
VH: B2 VH
VL: B2 VL
notes: also called BIA 13; mAbFAP5
B4: MFP5-SMCC-DM1 (other)
VH: B2 VH
VL: B2 VL
B5: MFP5-SPDB-DM4 (other)
VH: B2 VH
VL: B2 VL

Experiments:
[1] = target: human FAP (fibroblast activation protein alpha) expressed on HT1080 clone v1.33 cells (human) (UniProt Q12884); assay: cell ELISA on ethanol-fixed HT1080 v1.33 cells expressing human FAP; rabbit anti-human-IgG-peroxidase, TMB, OD 450 nm
[2] = target: T1, human FAP (fibroblast activation …); assay: cell-based or functional assay
[3] = target: T2, murine FAP expressed on HT1080 clone …; assay: cell ELISA on ethanol-fixed HT1080 13.6 cells expressing murine FAP; goat anti-mouse-Ig-peroxidase, TMB, OD 450 nm
Procedure: The binding of BIBH1 and MFP5 antibodies and the respective antibody conjugates BIBH1-DM1 and MFP5-DM1 to antigen positive and negative HT1080 cells is determined in a cell-ELISA assay. […] Stable clones are generated as described for HT1080 v1.33 and clones positive for murine FAP are screened with the murine FAP specific monoclonal antibody 3D11 (Niedermeyer et al., 2000). For the cell ELISA 100 μl of cell suspensions at various cell densities are seeded per well of a 96-well microliter plate and the cells are incubated overnight in an incubator (37° C., 5% CO2). On the next day, cells are fixed with 100% ethanol. Dilutions of the antibodies BIBH1 and MFP5 and of the conjugates BIBH1-DM1 and MFP5-DM1 are added in duplicates and incubated for two hours. After washing three times with PBS/Tween, diluted rabbit anti-human-IgG-peroxidase conjugate is added for detection of the BIBH1 antibodies and for detection of the MFP5 antibodies a diluted goat anti-mouse-Ig-peroxidase conjugate is added. After incubation for two hours at RT plates are washed again three times with PBS/Tween and bound anti-FAP-antibodies detected by addition of TMB staining solution. […] A: Binding to HT1080 v1.33 expressing human FAP. The binding affinity of the antibodies is retained after conjugation to DM1. [0114] […] Only the murine specific antibody MFP5 binds. [0115] C: Negative control.

Molecule | EC50 (read off the curve) [1] [ng Ab/ml] | EC50, proliferation assay [2] [pM] | also measured
humanized anti-FAP antibody BIBH1 (sibrotuzumab) | 8 |  | 
B1 | 10 |  | 
B2 |  |  | EC50 (concentration resulting in 50% cytotoxic effect), MTS cytotoxicity assay, 3 days [2]: ~40 pM
B3 |  |  | EC50 (read off the curve) [3]: ~6 ng Ab/ml
B4 |  | 22 | 
B5 |  | 29 | 
